In the assay the target is T1, Human BCMA (human, UniProt Q02223 1-54, limits assumed).
T1 construct: Soluble analyte in SPR; construct not described; also called huBCMA; B-cell maturation antigen
T1 sequence (looked up): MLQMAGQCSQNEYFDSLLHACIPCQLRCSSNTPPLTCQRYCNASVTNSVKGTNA
As to the kind of experiment: SPR, IgG immobilised, 37 C. As for the experimental part: All experiments were performed on a Bio-Rad Proteon XPR36 surface Plasmon resonance biosensor (Bio-Rad, Hercules, Calif.). […] The analysis temperature for the immobilization was 25° C. and the running buffer was HBS-T+(10 mM HEPES, 150 mM NaCl, 0.05% Tween-20, pH 7.4). Channels were activated in the analyte (horizontal) direction by injecting a mixture of 1 mM ECD and 0.25 mM NHS for 3 minutes at a flow rate of 30 μL/min. IgGs were immobilized on the activated spots by injecting them in the ligand (vertical) direction at 20 μg/mL in 10 mM Acetate pH 4.5 buffer for 1.5 minutes at […]. The activated surfaces were blocked by injecting 1M ethanolamine, pH 8.5 in the analyte direction for 3 minutes at 30 μL/min.
The analysis temperature for the BCMA binding analysis was 37° C. or 25° C. in a running buffer of HBS-T+, supplemented with 1 mg/mL BSA. A kinetic titration method was employed for the interaction analysis as described in Abdiche, et al. Human BCMA (huBCMA) or cynomolgus monkey BCMA (cyBCMA) analyte was injected in the analyte direction using a series of injections from low to high concentration. The concentrations used were 0.08 nM, 0.4 nM, 2 nM, 10 nM and 50 nM (a 5-membered series, with a 5-fold dilution factor and top concentration of 50 nM). The association time for a given analyte dilution was two minutes. Immediately after the 50 nM BCMA injection, dissociation was monitored for 2 hours.
The sensorgrams were double-referenced and fit to a 1:1 Langmuir with mass transport kinetic titration model in BIAevaluation Software version 4.1.1 (GE Lifesciences, Piscataway, N.J.).
For orientation: SPR reads the build-up and loss of mass on a sensor chip optically.

B1: L3.PY/L1.AH/H3.TAQ (antibody, V domains shown)
VH: EVQLLESGGGLVQPGGSLRLSCAASGFTFGSYAMTWVRQAPGKGLEWVSAISGSGGNTFYADSVKGRFTISRDNSKNTLYLQMNSLRAEDTAVYYCTRVSPIAAQMDYWGQGTLVTVSS
VL: EIVLTQSPGTLSLSPGERATLSCRASQSVSAHYLAWYQQKPGQAPRLLIYGASSRATGIPDRFSGSGSGTDFTLTISRLEPEDFAVYYCQHYPYPPSFTFGQGTKVEIK
notes: IgG
As a reminder, the Kd is the free concentration of one partner at which half of the binding sites on the other are occupied at equilibrium, for simple one-to-one binding. Low values mean tighter binding, high ones weaker binding. One may read the koff as a measure of how fast the partners let go of each other. A word on the kon: it is the rate constant with which the complex forms. A low value points to slower complex formation. B1: the Kd is 0.37 nM, the “T ½” value came out at 9.68 min, the off-rate (koff) is 0.00119 s⁻¹ and the kon came out at 3.27e+06 M⁻¹ s⁻¹.

B2: L3.PY/L1.FF/H2.YQ (antibody, V domains shown)
VH: EVQLLESGGGLVQPGGSLRLSCAASGFTFGSYAMTWVRQAPGKGLEWVSAISYQGGNTFYADSVKGRFTISRDNSKNTLYLQMNSLRAEDTAVYYCARVSPIASGMDYWGQGTLVTVSS
VL: EIVLTQSPGTLSLSPGERATLSCRASQSVSSFFLAWYQQKPGQAPRLLIYGASSRATGIPDRFSGSGSGTDFTLTISRLEPEDFAVYYCQHYPYPPSFTFGQGTKVEIK
notes: IgG
B2: the Kd was 0.46 nM, the “T ½” value turned out to be 7.61 min, the koff stood at 0.00152 s⁻¹ and the kon was 3.32e+06 M⁻¹ s⁻¹.

B3: L3.PY/L1.PH/H2.QR (antibody, V domains shown)
VH: EVQLLESGGGLVQPGGSLRLSCAASGFTFGSYAMTWVRQAPGKGLEWVSAISGSGGNTFYADQRKGRFTISRDNSKNTLYLQMNSLRAEDTAVYYCARVSPIASGMDYWGQGTLVTVSS
VL: EIVLTQSPGTLSLSPGERATLSCRASQSVSPHYLAWYQQKPGQAPRLLIYGASSRATGIPDRFSGSGSGTDFTLTISRLEPEDFAVYYCQHYPYPPSFTFGQGTKVEIK
notes: IgG
With B3, the Kd turned out to be 0.64 nM, the “T ½” value came to 4.89 min, the koff turned out to be 0.00236 s⁻¹ and the on-rate (kon) came out at 3.69e+06 M⁻¹ s⁻¹.

B4: L3.PY/L1.FF/H2.HA (antibody, V domains shown)
VH: EVQLLESGGGLVQPGGSLRLSCAASGFTFGSYAMTWVRQAPGKGLEWVSAISHAGGNTFYADSVKGRFTISRDNSKNTLYLQMNSLRAEDTAVYYCARVSPIASGMDYWGQGTLVTVSS
VL: EIVLTQSPGTLSLSPGERATLSCRASQSVSSFFLAWYQQKPGQAPRLLIYGASSRATGIPDRFSGSGSGTDFTLTISRLEPEDFAVYYCQHYPYPPSFTFGQGTKVEIK
notes: IgG
B4: the Kd was found to be 0.63 nM, the “T ½” value was found to be 5.29 min, the koff stood at 0.00219 s⁻¹ and the kon was found to be 3.49e+06 M⁻¹ s⁻¹.

B5: L3.PY/L1.FF/H3.AQ (antibody, V domains shown)
VH: EVQLLESGGGLVQPGGSLRLSCAASGFTFGSYAMTWVRQAPGKGLEWVSAISGSGGNTFYADSVKGRFTISRDNSKNTLYLQMNSLRAEDTAVYYCARVSPIAAQMDYWGQGTLVTVSS
VL: EIVLTQSPGTLSLSPGERATLSCRASQSVSSFFLAWYQQKPGQAPRLLIYGASSRATGIPDRFSGSGSGTDFTLTISRLEPEDFAVYYCQHYPYPPSFTFGQGTKVEIK
notes: IgG
B5: the Kd stood at 0.46 nM, the “T ½” value was 7.51 min, the koff turned out to be 0.00154 s⁻¹ and the kon came to 3.32e+06 M⁻¹ s⁻¹.

B6: L3.PY/L1.PH/H3.AE (antibody, V domains shown)
VH: EVQLLESGGGLVQPGGSLRLSCAASGFTFGSYAMTWVRQAPGKGLEWVSAISGSGGNTFYADSVKGRFTISRDNSKNTLYLQMNSLRAEDTAVYYCARVSPIAAEMDYWGQGTLVTVSS
VL: EIVLTQSPGTLSLSPGERATLSCRASQSVSPHYLAWYQQKPGQAPRLLIYGASSRATGIPDRFSGSGSGTDFTLTISRLEPEDFAVYYCQHYPYPPSFTFGQGTKVEIK
notes: IgG
Turning to B6, the Kd stood at 0.36 nM, the “T ½” value was determined as 8.61 min, the koff stood at 0.00134 s⁻¹ and the association rate constant (kon) stood at 3.68e+06 M⁻¹ s⁻¹.

B7: L3.PY/L1.FF/H2.QL (antibody, V domains shown)
VH: EVQLLESGGGLVQPGGSLRLSCAASGFTFGSYAMTWVRQAPGKGLEWVSAISGSGGNTFYADQLKGRFTISRDNSKNTLYLQMNSLRAEDTAVYYCARVSPIASGMDYWGQGTLVTVSS
VL: EIVLTQSPGTLSLSPGERATLSCRASQSVSSFFLAWYQQKPGQAPRLLIYGASSRATGIPDRFSGSGSGTDFTLTISRLEPEDFAVYYCQHYPYPPSFTFGQGTKVEIK
notes: IgG
As to B7, the equilibrium dissociation constant (Kd) came out at 0.4 nM, the “T ½” value worked out at 8.28 min, the koff came to 0.0014 s⁻¹ and the kon was found to be 3.48e+06 M⁻¹ s⁻¹.

B8: L3.PY/L1.PH/H3.AQ (antibody, V domains shown)
VH: EVQLLESGGGLVQPGGSLRLSCAASGFTFGSYAMTWVRQAPGKGLEWVSAISGSGGNTFYADSVKGRFTISRDNSKNTLYLQMNSLRAEDTAVYYCARVSPIAAQMDYWGQGTLVTVSS
VL: EIVLTQSPGTLSLSPGERATLSCRASQSVSPHYLAWYQQKPGQAPRLLIYGASSRATGIPDRFSGSGSGTDFTLTISRLEPEDFAVYYCQHYPYPPSFTFGQGTKVEIK
notes: IgG
As for B8, the equilibrium dissociation constant (Kd) amounted to 0.52 nM, the “T ½” value amounted to 7.27 min, the koff was determined as 0.00159 s⁻¹ and the association rate constant (kon) amounted to 3.08e+06 M⁻¹ s⁻¹.

B9: L3.PY/L1.FF/H2.QR (antibody, V domains shown)
VH: EVQLLESGGGLVQPGGSLRLSCAASGFTFGSYAMTWVRQAPGKGLEWVSAISGSGGNTFYADQRKGRFTISRDNSKNTLYLQMNSLRAEDTAVYYCARVSPIASGMDYWGQGTLVTVSS
VL: EIVLTQSPGTLSLSPGERATLSCRASQSVSSFFLAWYQQKPGQAPRLLIYGASSRATGIPDRFSGSGSGTDFTLTISRLEPEDFAVYYCQHYPYPPSFTFGQGTKVEIK
notes: IgG
In the case of B9, binding was put at a Kd of 0.51 nM, the “T ½” value is 6.54 min, the koff is 0.00177 s⁻¹ and the kon amounted to 3.47e+06 M⁻¹ s⁻¹.

B10: L3.PY/L1.FF/H3.AE (antibody, V domains shown)
VH: EVQLLESGGGLVQPGGSLRLSCAASGFTFGSYAMTWVRQAPGKGLEWVSAISGSGGNTFYADSVKGRFTISRDNSKNTLYLQMNSLRAEDTAVYYCARVSPIAAEMDYWGQGTLVTVSS
VL: EIVLTQSPGTLSLSPGERATLSCRASQSVSSFFLAWYQQKPGQAPRLLIYGASSRATGIPDRFSGSGSGTDFTLTISRLEPEDFAVYYCQHYPYPPSFTFGQGTKVEIK
notes: IgG
For the molecule B10, the Kd worked out at 0.69 nM, the “T ½” value came to 4.39 min, the koff is 0.00263 s⁻¹ and the kon is 3.82e+06 M⁻¹ s⁻¹.

B11: L3.PY/L1.FF/H2.DY (antibody, V domains shown)
VH: EVQLLESGGGLVQPGGSLRLSCAASGFTFGSYAMTWVRQAPGKGLEWVSAIDYSGGNTFYADSVKGRFTISRDNSKNTLYLQMNSLRAEDTAVYYCARVSPIASGMDYWGQGTLVTVSS
VL: EIVLTQSPGTLSLSPGERATLSCRASQSVSSFFLAWYQQKPGQAPRLLIYGASSRATGIPDRFSGSGSGTDFTLTISRLEPEDFAVYYCQHYPYPPSFTFGQGTKVEIK
notes: IgG
On to B11, for which the Kd turned out to be 0.65 nM, the “T ½” value worked out at 4.27 min, the koff was found to be 0.00271 s⁻¹ and the kon worked out at 4.14e+06 M⁻¹ s⁻¹.

B12: L3.PY/L1.FF/H3.YA (antibody, V domains shown)
VH: EVQLLESGGGLVQPGGSLRLSCAASGFTFGSYAMTWVRQAPGKGLEWVSAISGSGGNTFYADSVKGRFTISRDNSKNTLYLQMNSLRAEDTAVYYCARVSPIYAGMDYWGQGTLVTVSS
VL: EIVLTQSPGTLSLSPGERATLSCRASQSVSSFFLAWYQQKPGQAPRLLIYGASSRATGIPDRFSGSGSGTDFTLTISRLEPEDFAVYYCQHYPYPPSFTFGQGTKVEIK
notes: IgG
For B12, the Kd is 0.51 nM, the “T ½” value is 6.41 min, the koff amounted to 0.0018 s⁻¹ and the kon stood at 3.5e+06 M⁻¹ s⁻¹.

B13: L3.PY/L1.FF/H2.LT (antibody, V domains shown)
VH: EVQLLESGGGLVQPGGSLRLSCAASGFTFGSYAMTWVRQAPGKGLEWVSAISLTGGNTFYADSVKGRFTISRDNSKNTLYLQMNSLRAEDTAVYYCARVSPIASGMDYWGQGTLVTVSS
VL: EIVLTQSPGTLSLSPGERATLSCRASQSVSSFFLAWYQQKPGQAPRLLIYGASSRATGIPDRFSGSGSGTDFTLTISRLEPEDFAVYYCQHYPYPPSFTFGQGTKVEIK
notes: IgG
B13: binding was put at a Kd of 0.51 nM, the “T ½” value is 6.92 min, the koff came to 0.00167 s⁻¹ and the on-rate constant (kon) was found to be 3.3e+06 M⁻¹ s⁻¹.

B14: L3.PY/L1.FF/H3.TAQ (antibody, V domains shown)
VH: EVQLLESGGGLVQPGGSLRLSCAASGFTFGSYAMTWVRQAPGKGLEWVSAISGSGGNTFYADSVKGRFTISRDNSKNTLYLQMNSLRAEDTAVYYCTRVSPIAAQMDYWGQGTLVTVSS
VL: EIVLTQSPGTLSLSPGERATLSCRASQSVSSFFLAWYQQKPGQAPRLLIYGASSRATGIPDRFSGSGSGTDFTLTISRLEPEDFAVYYCQHYPYPPSFTFGQGTKVEIK
notes: IgG
Take B14: binding was characterised by a dissociation constant (Kd) of 0.54 nM, the “T ½” value turned out to be 6.12 min, the koff was found to be 0.00189 s⁻¹ and the kon was found to be 3.52e+06 M⁻¹ s⁻¹.

B15: L3.PY/L1.PH/H2.HA (antibody, V domains shown)
VH: EVQLLESGGGLVQPGGSLRLSCAASGFTFGSYAMTWVRQAPGKGLEWVSAISHAGGNTFYADSVKGRFTISRDNSKNTLYLQMNSLRAEDTAVYYCARVSPIASGMDYWGQGTLVTVSS
VL: EIVLTQSPGTLSLSPGERATLSCRASQSVSPHYLAWYQQKPGQAPRLLIYGASSRATGIPDRFSGSGSGTDFTLTISRLEPEDFAVYYCQHYPYPPSFTFGQGTKVEIK
notes: IgG
In the case of B15, binding was characterised by a dissociation constant (Kd) of 0.49 nM, the “T ½” value turned out to be 9.99 min, the off-rate (koff) came to 0.00116 s⁻¹ and the kon was determined as 2.37e+06 M⁻¹ s⁻¹.

The record behind these values is patent publication US20160297884A1 (Pfizer, published 2016).
